# Experiment: soluble on expression in E. coli; label from the status in PepcDB or PDB records
row,Sequence,soluble on expression in E. coli
1,STLQFKVGPPFELVRDYCPVVESHTGRTLDLRIIPRIDRGFDHIDEEWVGYKRNYFTLVSTFETANCDLDTFLKSSFDLLVEDSSVESRLRVQYFAIKIKAKNDDDDTEINLVQHTAKRDKGPQFCPSVCPLVPSPLPKHQIIREASNVRNITKTKKYDSTFYLHRNHVNYEEYGVDSLLFSYPEDSIQKVARYERVQFASSISVKKPFQQNKHFSLHVILGAVVDPDTFHGENPGIPYDELALKNGSKGMFVYLQEMKTPPLIIRGRSPSN,soluble
2,MSEPLIVGIRHHSPACARLVKSLIESQRPRYVLIEGPADFNDRVDELFLAHQLPVAIYSYCQYQDGAAPGRGAWTPFAEFSPEWQALQAARRIQAQTYFIDLPCWAQSEEEDDSPDTQDESQALLLRATRMDNSDTLWDHLFEDESQQTALPSALAHYFAQLRGDASGDALNRQREAFMARWIGWAMQQNNGDVLVVCGGWHAPALAKMWRECPQKINKPELPSLADAVTGCYLTPYSEKRLDVLAGYLSGMPAPVWQNWCWQWGLQKAGEQLLKTILTRLRQHKLPASTADMAAAHLHAMALAQLRGHTLPLRTDWLDAIAGSLIKEALNAPLPWSYRGVIHPDTDPILLTLIDTLAGDGFGKLAPSTPQPPLPKDVTCELERTAISLPAELTLNRFTPDGLAQSQVLHRLAILEIPGIVRQQGSTLTLAGNGEERWKLTRPLSQHAALIEAACFGATLQEAARNKLEADMLDAGGIGSITTCLSQAALAGLASFSQQLLEQLTLLIAQENQFAEMGQALEVLYALWRLDEISGMQGAQILQTTLCATIDRTLWLCESNGRPDEKEFHAHLHSWQALCHILRDLHSGVNLPGVSLSAAVALLERRSQAIHAPALDRGAALGALMRLEHPNASAEAALTMLAQLSPAQSGEALHGLLALARHQLACQPAFIAGFSSHLNQLSEADFINALPDLRAAMAWLPPRERGTLAHQVLEHYQLAQLPVSALQMPLHCPPQAIAHHQQLEQQALASLQNWGVFHV,not soluble
3,DYRPGGFHPAFKGEPYKDARYILVRKLGWGHFSTVWLAKDMVNNTHVAMKIVRGDKVYTEAAEDEIKLLQRVNDADNTKEDSMGANHILKLLDHFNHKGPNGVHVVMVFEVLGENLLALIKKYEHRGIPLIYVKQISKQLLLGLDYMHRRCGIIHTDIKPENVLMEIVDSPENLIQIKIADLGNACWYDEHYTNSIQTREYRSPEVLLGAPWGCGADIWSTACLIFELITGDFLFEPDEGHSYTKDDDHIAQIIELLGELPSYLLRNGKYTRTFFNSRGLLRNISKLKFWPLEDVLTEKYKFSKDEAKEISDFLSPMLQLDPRKRADAGGLVNHPWLKDTLGMEEIRVPDRELYGSGSDIPGWFEEVRDHKRH,soluble
4,MAHHHHHHMSRNGELCLKKVIISYCPSNGAPNTRQFLATHLPHFHAKYPSVSIDLRPRLWPEMAITGVYRDGSERSYNTKNLSPMGIFLRLNNLVSTANDYDQPFCASHLHFQRRSVQGTWNPWLWNYETERRRTEAPQWRRKLSEKEWDYYVGQYSAQMKQEEDEIQRRVADRTCVQEQSTREVQERWKRHVVPRMQTDLEFNLSHFKRQHARGQLQQRPVTMGEYRLFSVPDPRELGQDAVDTMRRRESHNMEVWWRKRKEQLKPP,not soluble
5,INALVIGDLMLDQYLWGKAERISPEAPVQVVDVTREEIRIGGAGNVANNLVALGCRVSVASVVGGDENGTILLHAFSGKGIDVTGIVEDPSRTTSRKTRVLASNQQIVRIDRESRDEIGPDNERRIVDYLNAHGDRFNVILVSDYLKGVLTPTLLAEVIAFARKREIPVVVDPKGSDYAKYRGATVLTPNRKEAEAASGIAIRDDESLCRAGERLLETADLTALVITRSEEGMSLFLRGGQVVHIPTYAREVFDVTGAGDTVLAVLGMALAGGVGFADGARLANVAAGVAVGKVGTSTVSPAEIVGSLG,not soluble
6,MDVEPIFCAEQIVIPHNLADILKAYTKEVIRRQPTDLIAFSAKYFTNLANVASGVSNSSAPAKEQLRQVYTRGGSGGATLTESQVTGLCQQAGIADAVVAKVMEVGAFTPAAVDLSKFVFLCLAMSCEDFNRVCMGVFDVFSDNGSLPAQDLLTLIAHLGPDMDPEVTPAFLDAVAAELPAGGGAVTYMELCEAPSLKPKLGLS,not soluble
7,KMGPEYTKMQNLVKSEGLHTVCQEAGCPNIYECWEDREATFLIGGDQCTRRCDFCQIDTGKPEALDRDEPRRVGESVVTMDLNYATITGVARDDLEDGGAWLYAETVRQIHAQTAGREAGRTKVELLAPDFNAEPDQLAEVFSARPEVFAHNVETVPRIFKRIRPGFRYERSLKVITEARDYGLVTKSNLILGMGETREEVSEALRQLHDAGCELITITQYLRPSVRHHPVERWVKPHEFVELKEEAEEIGFSGVMSGPLVRSSYRAGRLYQMAMELRQSAAPQGGAQVASQAV,not soluble
8,GEPPTQKPKKIVNAKKDVVNTKMFEELKSRLDTLSQEVALLKEQQALQTVCLKGTKVHMKCFLAFTQTKTFHEASEDCISRGGTLSTPQTGSENDALYEYLRQSVGNEAEIWLGLNDMAAEGTWVDMTGARIAYKNWETEITAQPDGGKTENCAVLSGAANGKWFDKRCRDQLPYICQFGIV,soluble
9,MKSKFEASIDNLKEIEMNAYAYELIREIVLPDMLGQDYSSMMYWAGKHLARKFPLESWEEFPAFFEEAGWGTLTNVSAKKQELEFELEGPIISNRLKHQKEPCFQLEAGFIAEQIQLMNDQIAESYEQVKKRADKVVLTVKWDMKDPVMAGDPLEHHHHHH,soluble
10,GPGSMSTSQPIVKPFIYLRIPSEDARPVEELHFNGHNEAELRHTLTRCFRQSLLSDDQKKDMARHLADKASESAKKHAVKGNGDASAAGSGAEPPVDVEQQQAAMIDQYLEQASYEIIPVTMPMRSTQYIGTSLYIDDSGAFKDLPLNYRASKLAQREIRGDAFLLSNHDDPALDEWGRVDCPLQRYEELYANPPQIAYDPSNQAQMTQAAMLRETETKKISLEDYEKAQKAKEDGNRLFAANDLPAAVQAYSMTVDLTDGRRDLLPNEEAATQLRLSALLNRCLCFTRLKKFPEAVRDAQAAAYLDPKSMKAYYRLTYALCGAQEYEAAAQACEKYAQLGGAEEDVTAMRTAVAAGETEVKKAQKQIFSKMFRS,soluble
11,GMQYATLELNNAFKVLFSLRQVQAAEMVIAPGDREGGPDNRHRGADQWLFVVDGAGEAIVDGHTQALQAGSLIAIERGQAHEIRNTGDTPLKTVNFYHPPAYDAQGEPLPAGEG,soluble
12,MASVGIFFGSDTGNTEAIAKMIQKQLGKKLVHVQDIAKSSKEDINNFDLLLLGIPTWYYGEAQCDWDDFFPELEAIDFSTKLVAIFGCGDQEDYAEYFCDAMGTVRDIIQAKGATIVGHWPTEGYEFEASKALVDENHFVGLCIDEDRQPELTEQRVTKWVNQVYEEMCLAELED,not soluble
13,GAEKEDLVQEGILGLLKAIKFYDETKSSFSSFAFLCIRREMISAIRKANTQKHMVLNEALKTNAILEDSAYFDDEGHNINNYKSSESNPEEAYLLKEEIEEFKKFSENNFSKFEKEVLTYLIRGYSYREIATILSKNLKSIDNTIQRIRKKSEEWIKEEENIKR,soluble
14,VSQLFEEKAKAVNELPTKPSTDELLELYALYKQATVGDNDKEKPGIFNMKDRYKWEAWENLKGKSQEDAEKEYIALVDQLIAKYSS,soluble
15,MQQVIPAPRVQVTQPYAGQKPGTSGLRKKVSEATQPNYLENFVQSIFNTLRKDELKPKNVLFVGGDGRYFNRQAIFSIIRLAYANDISEVHVGQAGLMSTPASSHYIRKVNEEVGNCIGGIILTASHNPGGKEHGDFGIKFNVRTGAPAPEDFTDQIYTHTTKIKEYLTVDYEFEKHINLDQIGVYKFEGTRLEKSHFEVKVVDTVQDYTQLMQKLFDFDLLKGLFSNKDFSFRFDGMHGVAGPYAKHIFGTLLGCSKESLLNCDPSEDFGGGHPDPNLTYAHDLVELLDIHKKKDVGTVPQFGAACDGDADRNMILGRQFFVTPSDSLAVIAANANLIFKNGLLGAARSMPTSGALDKVAAKNGIKLFETPTGWKFFGNLMDAGLINLCGEESFGTGSNHIREKDGIWAVLAWLTILAHKNKNTDHFVTVEEIVTQYWQQFGRNYYSRYDYEQVDSAGANKMMEHLKTKFQYFEQLKQGNKADIYDYVDPVDQSVSKNQGVRFVFGDGSRIIFRLSGTGSVGATIRIYFEQFEQQQIQHETATALANIIKLGLEISDIAQFTGRNEPTVIT,soluble
16,QSIEKLYAEFETEPIASASIAQVHKARLHSGEQVAVKVLRPNLLPVIEQDLSLMRFGAGWVERLFADGKRLKPREVVAEFDKYLHDELDLMREAANASQLGRNFQNSDMLIVPKVFYDYC,not soluble
17,MGSDKIHHHHHHAQVKTYKYRVNFRDKAETTYALDKPSAYLSERALERRMKQGLPVDSTDIPVCRSYIDMLVGKGAQLVSKSKWNNTVVVQVSDTSVIDKVAALPFVTAVRKVWTAPDSIPARNANRKKEVTNRVTKSNNYYGDAWRQIAVHHGDSLHAAGFRGKGMQIAVIDAGFYNADEISVFKGMDLLGTRDFVNSHSDIYAENYHGMKVLSCMAANKPNVLVGTAPEASYWLLRSEDDDTEQPVEEDYWAEALEFADSVGVDVVNTSLGYYEFDDTTMNYRYRDLDGHYSLMSHSASLAADKGLVLVCSAGNSGRGTWKKITPPGDAENVITVGAADRNLVNADFSSVGNTTDGRVKPDVMAVGVASAVAGNDGTVSHANGTSFASPTLCGLVACFWQACPWLTAKQVVEAVRNAGDRKEYPDNIYGYGVPDIWKACQIELEKKK,not soluble
18,MGHHHHHHSHMRLSQKWQVINQRSLLCGEDEAADENPESQEMLEEQLVRMLTREVMDLITVCCVSKKGADHSSAPPADGDDEEMMATEVTPSAMAELTDLGKCLMKHEDVCTALLITAFNSLAWKDTLSCQRTTSQLCWPLLKQVLSGTLLADAVTWLFTSVLKGLQMHGQHDGCMASLVHLAFQIYEALRPRYLEIRAVMEQIPEIQKDSLDQFDCKLLNPSLQKVADKRRKDQFERLIAGCIGKPLGEQFRKEVHIKNLPSLFKKTKPMLETEVLDNDGGGLATIFEP,not soluble
19,MAHHHHHHMEAPTDNDSMQAGPVVVGHADGVLTMPSEDFASLHLQPIQDDTWIRNAEIVHMENFVETEDGKRIKREILKEYVEEKERQGTFHPDPILEGMIYQEKFMEAYRTNGRSVDADKAHSYRLKLLETHRRARAIENADT,not soluble
20,MGSDKIHHHHHHMRKWISYPHREGTISRQAHADFPAEAIYEREVGRSGFFGPATHLHHKHPPTAWSAWEGPLRPRAYDLNELPHGTPAPWDAPLVLHNAQCKLRIWRCDQAMTQLSRNADGDDLLFIHGGSGELFCDYGHLSYRDGDYILVPRSTSWRIEPASPTTMLLIETSNGAYQLPEKGLVGPHAIFDEAVLDVPAIDDAFKAQQTEDEWQVVIKRRGALSTVTYPYNPLDAIGWHGNLSVARVNWRDIRPLMSHRYHLPPSAHTTFVADGFVICTFVPRPIESDPGALKVPFYHNNDDYDEVIFYHAGDFFSRDNIKPGMLTFHPAGFTHGPHPKAFAKAMTDPKTFTDEVAVMIDARDALEQGPGLAGVEWQGYVDSWKPKQA,not soluble
21,MRSLADFEFNNAPLCDGMILASEMIRLDFPTQFVYDELERLVSLAQEEISQLLSQDEQLEKLLALFYGEWGFTDSRGVYRLSDALWLDKVLKKRQGSAVSLGAILLWIANRLDLPLVPVIFPTQLILRIESLEGEMWLINPFNGETLDEHTLEVWLKGNISPVAELFNEDLDEADNAEVIRKLLDTLKSSLMEERQMELALRVSEALLQFNPEDPYEIRDRGLIYAQLECEHVALTDLSYFVEQCPEDPISEMIRAQINTIAHKQIVLHLEHHHHHH,not soluble

# Reference: the DeepSol protein solubility set
